Assay results taken from article PMC7083938, “NELL2-Robo3 complex structure reveals mechanisms of receptor activation for axon guidance” (Nature Communications, 2020).

Tests used:
[1] = target: T1, hRobo3 FN1-3, biotinylated (wild type) (human, UniProt Q96MS0 549-870, biotin on the Avi-tag (BirA)); test: SPR; as a6 but with additional 10 mM EDTA in all buffers; conditions: both partners purified
T1 construct: human Robo3, FN domains 1-3, P549-L870; also called WT hRobo3 FN; Robo3FN1-3 WT; source: High Five cells (baculovirus), purified (Ni-NTA, SEC), biotinylated with BirA
T1 sequence (looked up): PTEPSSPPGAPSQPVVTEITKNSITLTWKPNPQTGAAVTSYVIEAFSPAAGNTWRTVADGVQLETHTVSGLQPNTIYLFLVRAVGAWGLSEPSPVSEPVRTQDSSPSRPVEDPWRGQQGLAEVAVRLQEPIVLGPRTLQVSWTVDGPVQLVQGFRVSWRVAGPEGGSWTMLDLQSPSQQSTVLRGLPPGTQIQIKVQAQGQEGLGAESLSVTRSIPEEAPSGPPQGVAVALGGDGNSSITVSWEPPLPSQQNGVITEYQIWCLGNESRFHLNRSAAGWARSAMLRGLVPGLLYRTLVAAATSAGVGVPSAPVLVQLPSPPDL

[2] = target: T1, hRobo3 FN1-3, biotinylated (wild type); test: SPR; biotinylated hRobo3 FN1-3 on an SA chip, Biacore 3000; hNELL1 EGF1-3 or hNELL2 EGF1-3 as analyte; equilibrium isotherms; conditions: both partners purified
[3] = target: the molecule itself; test: SEC-MALS; Wyatt HELEOS II coupled to an AKTA FPLC, Superose Increase 6 10/300, HBS; Zimm model
[4] = target: the molecule itself; test: SEC-SAXS; Superose 6 Increase 10/300 in HBS at APS BioCAT beamline 18; molecular weight from the scattering
[5] = target: the molecule itself; test: AUC; sedimentation velocity, concentration series (mRobo3 0.6-20 µM at 200,000 g; mRobo1 0.9-9.8 µM at 140,000 g), 20 °C, c(s) analysis
mRobo3 FN1-3 = target: T2, mRobo3 FN1-3 (mouse, biotin on the Avi-tag (BirA) for SPR); test: SPR; biotinylated mRobo3 FN1-3 on a Biacore SA chip; mNELL2 EGF1-6 WT and mutants as analytes over the same channel; 20 s 10 mM EDTA pH 8, 150 mM NaCl between runs; 25 °C, 10 mM HEPES pH 7.2, 150 mM NaCl, 0.05% Tween-20, 0.1% BSA; equilibrium, 1:1 Langmuir; conditions: both partners purified
T2 construct: also called Robo3FN1-3 (Polyhedrin, mouse); source: High Five cells (baculovirus), purified (Ni-NTA, SEC); biotinylated with BirA for SPR; not shown: His6, C-terminal, kept

[6] = target: T3, hRobo3 FN1-3 displayed on S2 cells (human, UniProt Q96MS0 549-870); test: flow cytometry on cells; biotinylated ligand at various concentrations, 30 min at 4 °C in PBS + 0.1% BSA, on Drosophila S2 cells displaying the partner (C-terminal FLAG, rat Neurexin-1 transmembrane helix); Cy5-streptavidin; gated on anti-FLAG positive cells; MFI fit to a single-site model; apparent KD; conditions: one partner purified
T3 construct: human Robo3, FN domains 1-3, P549-L870; also called Robo3FN1-3 WT (Actin 5C, C-terminal FLAG); source: Drosophila S2 cells, transiently transfected, on the cell surface; not shown: FLAG, C-terminal, kept; transmembrane helix of rat Neurexin-1, C-terminal, kept
T3 sequence (looked up): T1 sequence (looked up)

[7] = target: T1, hRobo3 FN1-3, biotinylated (wild type); test: SPR; biotinylated hRobo3 FN1-3 on an NLC/neutravidin chip, ProteOn XPR36; hNELL2 EGF1-6 as analyte; 25 °C, 10 mM HEPES pH 7.2, 150 mM NaCl, 0.05% Tween-20, 0.1% BSA; equilibrium responses, 1:1 Langmuir; conditions: both partners purified

B1: hNELL1 EGF1-3 (domain or fragment, human, UniProt Q92832 390-517, looked up)
chain: RGHNFCAEGPKCGENSECKNWNTKATCECKSGYISVQGDSAYCEDIDECAAKMHYCHANTVCVNLPGLYRCDCVPGYIRVDDFSCTEHDECGSGQHNCDENAICTNTVQGHSCTCKPGYVGNGTICRA
notes: human NELL1, EGF domains 1-3, R390-A517; also called NELL1EGF1-3 (Polyhedrin, human); source: High Five cells (baculovirus), purified (Ni-NTA, SEC)
Kd [1]: 2710 nM
Kd [2]: 460 nM

B2: mouse NELL1 (ligand, UniProt Q2VWQ2 22-810, looked up)
chain: FGMDPDLQMDIITELDLVNTTLGVTQVAGLHNASKAFLFQDVQREIHSAPHVSEKLIQLFRNKSEFTFLATVQQKPSTSGVILSIRELEHSYFELESSGPREEIRYHYIHGGKPRTEALPYRMADGQWHKVALSVSASHLLLHVDCNRIYERVIDPPETNLPPGSNLWLGQRNQKHGFFKGIIQDGKIIFMPNGFITQCPNLNRTCPTCSDFLSLVQGIMDLQELLAKMTAKLNYAETRLGQLENCHCEKTCQVSGLLYRDQDSWVDGDNCRNCTCKSGAVECRRMSCPPLNCSPDSLPVHISGQCCKVCRPKCIYGGKVLAEGQRILTKTCRECRGGVLVKITEACPPLNCSEKDHILPENQCCRVCRGHNFCAEAPKCGENSECKNWNTKATCECKNGYISVQGNSAYCEDIDECAAKMHYCHANTVCVNLPGLYRCDCIPGYIRVDDFSCTEHDDCGSGQHNCDKNAICTNTVQGHSCTCQPGYVGNGTVCKAFCEEGCRYGGTCVAPNKCVCPSGFTGSHCEKDIDECAEGFVECHNHSRCVNLPGWYHCECRSGFHDDGTYSLSGESCIDIDECALRTHTCWNDSACINLAGGFDCLCPSGPSCSGDCPHEGGLKHNGQVWILREDRCSVCSCKDGKIFCRRTACDCQNPNVDLFCCPECDTRVTSQCLDQSGQKLYRSGDNWTHSCQQCRCLEGEADCWPLACPSLSCEYTAIFEGECCPRCVSDPCLADNIAYDIRKTCLDSSGISRLSGAVWTMAGSPCTTCQCKNGRVCCSVDLVCLENN
notes: NELL1, mouse; the methods say that mature domains were cloned into pAcGP67A; Trimer by MALS; also called mNELL1; source: High Five cells (baculovirus), secreted, purified (Ni-NTA, SEC)
stoichiometry N [3]: 3

B3: hNELL2 EGF1-3 (domain or fragment, human, UniProt Q99435 397-523, looked up)
chain: GYDFCSERHNCMENSICRNLNDRAVCSCRDGFRALREDNAYCEDIDECAEGRHYCRENTMCVNTPGSFMCICKTGYIRIDDYSCTEHDECITNQHNCDENALCFNTVGGHNCVCKPGYTGNGTTCKA
notes: human NELL2, EGF domains 1-3, G397-A523; also called NELL2EGF1-3 (Polyhedrin, human); source: High Five cells (baculovirus), purified (Ni-NTA, SEC)
Kd [1]: 790 nM
Kd [2]: 250 nM

B4: hNELL2 (full length) (ligand, human, UniProt Q99435 22-816, looked up)
chain: LGVDPSLQIDVLTELELGESTTGVRQVPGLHNGTKAFLFQDTPRSIKASTATAEQFFQKLRNKHEFTILVTLKQTHLNSGVILSIHHLDHRYLELESSGHRNEVRLHYRSGSHRPHTEVFPYILADDKWHKLSLAISASHLILHIDCNKIYERVVEKPSTDLPLGTTFWLGQRNNAHGYFKGIMQDVQLLVMPQGFIAQCPDLNRTCPTCNDFHGLVQKIMELQDILAKTSAKLSRAEQRMNRLDQCYCERTCTMKGTTYREFESWIDGCKNCTCLNGTIQCETLICPNPDCPLKSALAYVDGKCCKECKSICQFQGRTYFEGERNTVYSSSGVCVLYECKDQTMKLVESSGCPALDCPESHQITLSHSCCKVCKGYDFCSERHNCMENSICRNLNDRAVCSCRDGFRALREDNAYCEDIDECAEGRHYCRENTMCVNTPGSFMCICKTGYIRIDDYSCTEHDECITNQHNCDENALCFNTVGGHNCVCKPGYTGNGTTCKAFCKDGCRNGGACIAANVCACPQGFTGPSCETDIDECSDGFVQCDSRANCINLPGWYHCECRDGYHDNGMFSPSGESCEDIDECGTGRHSCANDTICFNLDGGYDCRCPHGKNCTGDCIHDGKVKHNGQIWVLENDRCSVCSCQNGFVMCRRMVCDCENPTVDLFCCPECDPRLSSQCLHQNGETLYNSGDTWVQNCQQCRCLQGEVDCWPLPCPDVECEFSILPENECCPRCVTDPCQADTIRNDITKTCLDEMNVVRFTGSSWIKHGTECTLCQCKNGHICCSVDPQCLQEL
notes: human NELL2, L22-L816; trimer by SAXS; also called NELL2FL (Polyhedrin, human); source: High Five cells (baculovirus), purified (Ni-NTA, SEC)
stoichiometry N [4]: 3

B5: full-length human NELL2 (ligand, UniProt Q99435 22-816, looked up)
chain: B4 chain
notes: NELL2, human; called full-length; the methods say that mature domains were cloned into pAcGP67A; Trimer by MALS and SAXS; also called hNELL2; full-length hNELL2; source: High Five cells (baculovirus), secreted, purified (Ni-NTA, SEC)
stoichiometry N [3]: 3

B6: mRobo1 ectodomain (domain or fragment, mouse, UniProt O89026 30-840, looked up)
chain: RIVEHPSDLIVSKGEPATLNCKAEGRPTPTIEWYKGGERVETDKDDPRSHRMLLPSGSLFFLRIVHGRKSRPDEGVYICVARNYLGEAVSHNASLEVAILRDDFRQNPSDVMVAVGEPAVMECQPPRGHPEPTISWKKDGSPLDDKDERITIRGGKLMITYTRKSDAGKYVCVGTNMVGERESEVAELTVLERPSFVKRPSNLAVTVDDSAEFKCEARGDPVPTVRWRKDDGELPKSRYEIRDDHTLKIRKVTAGDMGSYTCVAENMVGKAEASATLTVQEPPHFVVKPRDQVVALGRTVTFQCEATGNPQPAIFWRREGSQNLLFSYQPPQSSSRFSVSQTGDLTITNVQRSDVGYYICQTLNVAGSIITKAYLEVTDVIADRPPPVIRQGPVNQTVAVDGTLILSCVATGSPAPTILWRKDGVLVSTQDSRIKQLESGVLQIRYAKLGDTGRYTCTASTPSGEATWSAYIEVQEFGVPVQPPRPTDPNLIPSAPSKPEVTDVSKNTVTLSWQPNLNSGATPTSYIIEAFSHASGSSWQTAAENVKTETFAIKGLKPNAIYLFLVRAANAYGISDPSQISDPVKTQDVPPTSQGVDHKQVQRELGNVVLHLHNPTILSSSSVEVHWTVDQQSQYIQGYKILYRPSGASHGESEWLVFEVRTPTKNSVVIPDLRKGVNYEIKARPFFNEFQGADSEIKFAKTLEEAPSAPPRSVTVSKNDGNGTAILVTWQPPPEDTQNGMVQEYKVWCLGNETKYHINKTVDGSTFSVVIPSLVPGIRYSVEVAASTGAGPGVKSEPQFIQLDSHGNPVS
notes: mouse Robo1, extracellular domain, R30-S840; C-terminal Avi and His; also called mRobo1 ECD; Robo1ECD; source: High Five cells (baculovirus), purified (Ni-NTA, SEC)
stoichiometry N [5]: 2

B7: mNELL2 EGF1-6 L498A/F500A (domain or fragment)
chain: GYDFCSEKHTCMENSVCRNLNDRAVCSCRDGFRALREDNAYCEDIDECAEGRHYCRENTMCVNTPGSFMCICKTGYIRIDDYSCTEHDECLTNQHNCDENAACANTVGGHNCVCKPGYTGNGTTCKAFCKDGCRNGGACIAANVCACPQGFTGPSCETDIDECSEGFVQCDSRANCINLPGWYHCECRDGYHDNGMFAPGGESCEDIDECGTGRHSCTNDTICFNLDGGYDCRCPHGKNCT
Kd (mRobo3 FN1-3): ≥ 100 µM

B8: hNELL2 EGF1-6, biotinylated (wild type) (domain or fragment)
chain: not shown
modifications: biotin on the Avi-tag (BirA)
notes: human NELL2, EGF domains 1-6, G397-T637; also called WT hNELL2 EGF; NELL2EGF1-6 WT; source: High Five cells (baculovirus), purified (Ni-NTA, SEC), biotinylated with BirA
Kd [6]: 0.77 µM

B9: hNELL2 EGF1-6 R452A, biotinylated (domain or fragment)
chain: not shown
modifications: biotin on the Avi-tag (BirA)
notes: human NELL2, EGF domains 1-6, G397-T637; source: High Five cells (baculovirus), purified, biotinylated with BirA (general methods)
Kd [6]: 1.1 µM

B10: hNELL2 EGF1-6 D476A, biotinylated (domain or fragment)
chain: not shown
modifications: biotin on the Avi-tag (BirA)
notes: as for B9
Kd [6]: ~50 µM

B11: hNELL2 EGF1-6 L498A/F500A, biotinylated (domain or fragment)
chain: not shown
modifications: biotin on the Avi-tag (BirA)
notes: as for B9
Kd [6]: ≥ 100 µM

B12: hNELL2 EGF1-6 R448A/Y450A, biotinylated (domain or fragment)
chain: not shown
modifications: biotin on the Avi-tag (BirA)
notes: as for B9
Kd [6]: 9 µM

B13: hNELL2 EGF1-6 D477A/Y478A, biotinylated (domain or fragment)
chain: not shown
modifications: biotin on the Avi-tag (BirA)
notes: as for B9
Kd [6]: ≥ 100 µM

B14: hNELL2 EGF1-6 V509A, biotinylated (domain or fragment)
chain: not shown
modifications: biotin on the Avi-tag (BirA)
notes: as for B9
Kd [6]: 1.5 µM

B15: mNELL2 EGF1-6 D477A/Y478A (domain or fragment)
chain: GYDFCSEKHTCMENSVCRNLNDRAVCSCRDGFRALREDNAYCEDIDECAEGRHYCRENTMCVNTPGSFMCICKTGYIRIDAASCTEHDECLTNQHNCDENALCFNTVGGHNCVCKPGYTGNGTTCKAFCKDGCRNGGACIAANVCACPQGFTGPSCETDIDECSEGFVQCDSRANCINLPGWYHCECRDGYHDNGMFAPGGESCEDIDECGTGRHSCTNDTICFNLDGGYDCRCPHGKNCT
Kd (mRobo3 FN1-3): ≥ 100 µM

B16: hNELL2 EGF1-6 (His-tagged) (domain or fragment)
chain: not shown
notes: human NELL2, EGF domains 1-6, G397-T637; also called NELL2EGF1-6 (Polyhedrin, human); source: High Five cells (baculovirus), purified (Ni-NTA, SEC)
Kd [7]: 579 nM
